Measurements from article PMC4365404, “Understanding the effect of alternative splicing in the folding and function of the second PDZ from Protein Tyrosine Phosphatase-BL” (Scientific Reports, 2015).
Values belong to the molecule of their own block, whether it stands above or below them. Where a SMILES comes first, the peptide text is derived from it. Where no end group is shown, it is not given here. The star is where a group is joined. Dansyl = CN(C)c1cccc2c(S(=O)(=O)*)cccc12

How the values were obtained:
pWT43 PDZ2as = molecular target: T1, pWT43 PDZ2as (Mus musculus, UniProt Q64512, INS1372VLFDK/Y1385W); assay: T-jump kinetic binding of dansylated peptides to pWT43 PDZ2as; conditions: 50 mM sodium phosphate pH 7.2, 150 mM KCl; for Kd: 25°C, from T-jump kinetics, read-out: overall KD obtained from kinetic experiments; for kon / koff: T-jump 16 to 25°C, PDZ2as 2 μM, peptide 100 to 400 μM, fluorescence ex 296 nm, 20 traces averaged, pseudo-first order; for kon: read-out: association bimolecular rate constant kon; for koff: read-out: dissociation rate constant koff
T1 construct: The second PDZ domain of the protein tyrosine phosphatase BL (PDZ2); made in house
T1 sequence (Q64512 with tags, fused parts or gaps INS1372VLFDK/Y1385W): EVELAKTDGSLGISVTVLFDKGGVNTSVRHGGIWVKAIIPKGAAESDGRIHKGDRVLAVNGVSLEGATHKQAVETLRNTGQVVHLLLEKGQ
Description: Previous studies have highlighted that the alternative splicing affects remarkably the binding function of the PDZ moiety, by nearly abrogating binding. To address the binding mechanism of pWT43 PDZ2as and its physiological partners, we performed kinetic experiments at 25°C. We carried out kinetic binding experiments by subjecting to temperature jump kinetics a constant concentration of pWT43 PDZ2as (2 μM) in the presence of excess concentrations of dansylated peptides mimicking the PDZ binding motif of APC and RIL; the latter concentrations typically varying from 100 to 400 μM. In particular, individual solutions containing a constant concentration of PDZ2as 2 μM and different concentrations of APC and RIL peptide were prepared and, subsequently, each of these solutions was subjected to a rapid temperature-jump to explore sub-ms relaxation binding kinetics. Under all the explored conditions, the observed time course was satisfactorily fitted by a single-exponential function, without evidence for accumulation of detectable intermediates. Analysis of the pseudo-first order dependence of observed rate constants (Figure 6) yields an association bimolecular rate constant kon of (0.44 ± 0.1) 10^6 s^−1 M^−1 and (0.74 ± 0.1) 10^6 s^−1 M^−1 and a dissociation rate constant koff of 145 ± 10 s^−1 and 120 ± 15 s^−1, respectively for APC and RIL peptides. […] A comparison between the observed kinetics on the light of previously reported structural and kinetic data of pWT43 PDZ2 is briefly discussed below.
Figure 6 Binding properties of pWT43 PDZ2as and of pWT43 PDZ2. Pseudo first order kinetics of the binding between pWT43 PDZ2as (circles) and pWT43 PDZ2 (diamonds) carried out at pH 7.2, 25°C. Data refer to both the APC (open symbols) and RIL (filled symbols) peptide.
Dansylated peptides corresponding to the C-terminus of APC and RIL, sequences D-SYLVTSV and D-EQVSAV, respectively, were purchased from JPT Peptide Technologies (Berlin, Germany); peptides were purified using high-performance liquid chromatography-purified peptide with purity higher than 95%.
Binding experiments were performed mixing a constant concentration of PDZ2as 2 μM with increasing concentrations of the APC or RIL peptide ranging from 100 to 400 μM in 50 mM sodium phosphate pH 7.2, in the presence of 150 mM KCl. The experiments were carried out using a Hi-Tech PTJ-64 capacitor-discharge T-jump apparatus (Hi-Tech, Salisbury, U.K.). Temperature was rapidly changed from 16°C to 25°C with a jump of 9°C. 20 individual traces were averaged at given peptide concentration. The fluorescence change of N-acetyltryptophanamide (NATA) was used in control measurements. Protein concentration was typically […]. The excitation wavelength was 296 nm and the fluorescence emission was measured using a band pass 315 +/− 25 nm glass filter.

[1] = molecular target: T2, pWT43 PDZ2as, the alternatively spliced form of the second PDZ domain of protein tyrosine phosphatase BL …; assay: temperature-jump fluorescence relaxation kinetics; constant pWT43 PDZ2as 2 uM with dansylated peptide 100 to 400 uM (pseudo-first order); 50 mM sodium phosphate pH 7.2, 150 mM KCl; jump from 16 to 25 °C; KD from kinetics; conditions: both partners purified
T2 chain: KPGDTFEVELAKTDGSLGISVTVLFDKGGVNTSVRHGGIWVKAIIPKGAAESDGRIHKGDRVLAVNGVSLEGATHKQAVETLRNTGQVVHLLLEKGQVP

Molecule: CC(C)C[C@H](NC(=O)[C@H](Cc1ccc(O)cc1)NC(=O)[C@H](CO)NS(=O)(=O)c1cccc2c(N(C)C)cccc12)C(=O)N[C@H](C(=O)N[C@H](C(=O)N[C@@H](CO)C(=O)N[C@H](C(=O)O)C(C)C)[C@@H](C)O)C(C)C [APC] (Dansyl-SYLVTSV-OH)
Kd (pWT43 PDZ2as): 352 ± 20 µM | kon (pWT43 PDZ2as): 440000 ± 100000 M⁻¹ s⁻¹ | koff (pWT43 PDZ2as): 145 ± 10 s⁻¹

B1: Dansylated peptide corresponding to the C-terminus of APC (D-SYLVTSV) (peptide)
peptide: Dansyl-SYLVTSV
notes: C-terminus of the tumour suppressor protein APC; the last 7 residues; also called APC peptide; source: bought: JPT Peptide Technologies (Berlin, Germany), HPLC-purified, purity higher than 95%
Kd [1]: 352 ± 20 µM | fold decrease of kon against pWT43 PDZ2 [1]: ~10 fold | koff [1]: 145 ± 10 s⁻¹ | kon [1]: 440000 M⁻¹ s⁻¹

Further lines, results first:

Kd (pWT43 PDZ2as): 162 ± 10 µM | kon (pWT43 PDZ2as): 740000 ± 100000 M⁻¹ s⁻¹ | koff (pWT43 PDZ2as): 120 ± 15 s⁻¹
Molecule: CC(C)[C@H](NC(=O)[C@H](C)NC(=O)[C@H](CO)NC(=O)[C@@H](NC(=O)[C@H](CCC(N)=O)NC(=O)[C@H](CCC(=O)O)NS(=O)(=O)c1cccc2c(N(C)C)cccc12)C(C)C)C(=O)O [RIL] (Dansyl-EQVSAV-OH)

Kd [1]: 162 ± 10 µM | fold decrease of kon against pWT43 PDZ2 [1]: ~10 fold | koff [1]: 120 ± 15 s⁻¹ | kon [1]: 740000 M⁻¹ s⁻¹
B2: Dansylated peptide corresponding to the C-terminus of RIL (D-EQVSAV) (peptide)
peptide: Dansyl-EQVSAV
notes: Which natural protein the peptide comes from is in doubt; also called RIL peptide; source: bought: JPT Peptide Technologies (Berlin, Germany), HPLC-purified, purity higher than 95%
